One may read the Kd as a measure of binding affinity in units of concentration.

Several values for one entry are separate records, joined by “and”; a condition that tells them apart may be missing. Equal entries are not always repeated.

Assay [1] has as its target murine monoclonal anti-EGFR antibody mAb 425 (ATCC HB 9629). The assay is described as follows: inhibition CellELISA on fixed A431 cells; reference 5A6 and 3B6.
The target is the same in assay [2]. The assay is described as follows: competition ELISA in solution by the method of Friguet, Scatchard plot.
The target of assay [3] is Anti-EGFR Ab3 sera from Balb/c and B6D2F1 mice. Description: inhibition ELISA: anti-EGFR Ab3 sera preincubated with the Anti-Id, then on coated sEGFR.

B1: 15H8 monoclonal anti-idiotypic antibody (Ab2) (antibody, V domains shown)
VH: EVQLVESGGGLVKPGGSLKLSCAASGFTFSDYYMYWFRQHPGKRLEWVATISDAGTYTYYPDSLKGRFTISRDNAKNNLYLQMSSLKSEDTAMYFCARDGAARTSSQVYYYGMDYWGQGTSVTVSS
VL: DIVMTQSQKFMSTSVGDRVSITCKASQNVRTAVAWYQQKPGQSPKALIYLASNRHTGVPDRFTGSGSGTDFTLTISNVQSEDLADYFCLQHWNYPLTFGSGTKLEIKR
B1 returned a times more effective in inhibition than 5A6 and 3B6 in assay [1] of 10 times. In assay [2], this molecule had a Kd of 0.3 nM. The percentage of inhibition in assay [3] was 15% and 35%.

B2: 5A6 monoclonal anti-idiotypic antibody (Ab2) (antibody, V domains shown)
VH: DVKLVESGGGLVKLGGSLKLSCAASGFTFSNYYMSWVRQTPEKRLEFVAAINSNGGSTYYPDTVKGRFTISRDNAKNTLYLQMSSLKSEDTALYYCARHRGRDSSGYVGYAIDYWGQGTSVTVSS
VL: DILLTQSPAILSVSPGERVSFSCRASQSIGTSIHWYQQRTNGSPRLLISILLSLSLGVPSRFSGSGSGTDFTLSINSVESEDIADYYCQQSNSWPYTFGGGTKLEIKR
As to B2, the Kd in assay [2] is 1 nM. Besides, in assay [3], the percentage of inhibition amounted to 100%.

The record behind these values is patent US5969107.
